The record followed here is paper PMC10403280.

The target in experiment [1] is Z domain of staphylococcal protein A, displayed on yeast (first protein, Z-A). In words: on-yeast cleavage-capture assay. Particulars: 60 min after 3C protease cleavage; parent: est. 63; read off a plot.
Experiment [2] concerns the target affibody ZpA963, second protein (Z-B) of the yeast-displayed single chain. In words: on-yeast cleavage-capture assay. Particulars: 60 min after 3C protease cleavage; parent: est. 63; read off a plot.
The target in experiment [3] is Z domain of staphylococcal protein A, displayed on yeast (first protein, Z-A). In words: flow cytometry on cells; on-yeast cleavage-capture assay: Aga2-cMyc-ZA-linker (3C site)-ZB-HA on S. cerevisiae EBY100, stained with Alexa Fluor 488 anti-cMyc and Alexa Fluor 647 anti-HA antibody, cut with 3C protease (0.4 mg/mL in MACS buffer, 4°C); HA-tag MFI as % of the MFI before cleavage. (A flow cytometer gives signals particle by particle.)

Experiment [4] shares this target. In words: flow cytometry on cells; on-yeast cleavage-capture assay, test of fluorescently labelled anti-HA antibodies of different valency (Fab, IgG mAb, Fab+streptavidin complex); staining after 3C cleavage as % of uncleaved cells.
Another experiment deals with affibody Z_(SPA-1). In words: SPR; BIAcore T100; about 100 RU of biotinylated affibody captured on a streptavidin (SA) chip, the partner flowed over in two-fold dilutions; HBS-P+; 1:1 binding model or steady-state affinity model; which partner was captured is not told. (In general: SPR reads the build-up and loss of mass on a sensor chip optically.)
The target in another experiment is affibody ZpA963. Described as above.

As for “affibody ZpA963, second protein (Z-B) of the yeast-displayed single chain L35I”, in experiment [1], the response was 26 % max.
Regarding “affibody ZpA963, second protein (Z-B) of the yeast-displayed single chain I31V”, in experiment [1], the response amounted to 30 % max.
“Z domain of staphylococcal protein A, displayed on yeast (first protein, Z-A) L17I”: the response in experiment [2] is 66 % max.
As to “affibody ZpA963, second protein (Z-B) of the yeast-displayed single chain (designed binder)”, the % of HA-tag fluorescence kept after an hour of 3C protease cleavage in experiment [3] was found to be 68.7%. Also, in experiment [4], the % of the staining of uncleaved cells kept after 3C cleavage (anti-HA Fab+SA complex) turned out to be 69.9% and the % of the staining of uncleaved cells kept after 3C cleavage (anti-HA IgG mAb) stood at 45.8%.
As usually defined, the Kd is the free concentration of one partner at which half of the binding sites on the other are occupied at equilibrium, for simple one-to-one binding. High values mean weaker binding, low ones tighter binding. With “Z domain of staphylococcal protein A (domain or fragment)”, the dissociation constant Kd is 2920 nM with affibody Z_(SPA-1) and 10 nM in the experiment with affibody ZpA963.
